In patent US20210155689A1 (SHANGHAI PHARMAEXPLORER, published 2021):

B1: 556F6B8-6 humanized antibody (antibody, V domains shown)
VH: QVQLQESGPGLVKPSETLSLTCTVSGFSIIKYGVHWIRQPPGKGLEWIGVIWRGGITDYNAAFMSRVTISVDTSKNQFSLKLSSVTAADTAVYYCARWDGPLAMDYWGQGTTVTVSS
VL: DIVLTQSPSFLSASVGDRVTITCKASQDVGTTVAWYQQKPGKAPKLLIYWASTRHTGVPSRFSGSGSGTEFTLTISSLQPEDFATYYCQQYSSYPYTFGQGTKLEIK
B2: 556F6B8-2 humanized antibody (antibody, V domains shown)
VH: QVQLQESGPGLVKPSETLSLTCTVSGFSIIKYGVHWIRQPPGKGLEWIGVIWRGGITDYNAAFMSRVTISVDTSKNQFSLKLSSVTAADTAVYYCARWDGPLAMDYWGQGTTVTVSS
VL: DIQLTQSPSFLSASVGDRVTITCKASQDVGTTVAWYQQKPGKAPKLLIYWASTRHTGVPSRFSGSGSGTEFTLTISSLQPEDFATYYCQQYSSYPYTFGQGTKLEIK
B3: 556F6B8-11 humanized antibody (antibody, V domains shown)
VH: QVQLQESGPGLVKPSETLSLTCTVSGFSLIKYGVHWIRQPPGKGLEWIGVIWRGGITDYNAAFMSRVTISKDTSKSQVSLKLSSVTAADTAVYYCARWDGPLAMDYWGQGTTVTVSS
VL: DIVLTQSPSFLSASVGDRVTITCKASQDVGTTVAWYQQKPGKSPKLLIYWASTRHTGVPSRFSGSGSGTEFTLTISSLQPEDFATYYCQQYSSYPYTFGQGTKLEIK
B4: 556F6B8-8 humanized antibody (antibody, V domains shown)
VH: RVQLQESGPGLVKPSETLSLTCTVSGFSLIKYGVHWIRQPPGKGLEWIGVIWRGGITDYNAAFMSRVTISKDTSKSQVSLKLSSVTAADTAVYYCAKWDGPLAMDYWGQGTTVTVSS
VL: DIVLTQSPSFLSASVGDRVTITCKASQDVGTTVAWYQQKPGKAPKLLIYWASTRHTGVPSRFSGSGSGTEFTLTISSLQPEDFATYYCQQYSSYPYTFGQGTKLEIK
B5: 556F6B8-1 humanized antibody (antibody, V domains shown)
VH: QVQLQESGPGLVKPSETLSLTCTVSGGSISKYGVHWIRQPPGKGLEWIGVIWRGGITDYNAAFMSRVTISVDTSKNQFSLKLSSVTAADTAVYYCARWDGPLAMDYWGQGTTVTVSS
VL: DIQLTQSPSFLSASVGDRVTITCKASQDVGTTVAWYQQKPGKAPKLLIYWASTRHTGVPSRFSGSGSGTEFTLTISSLQPEDFATYYCQQYSSYPYTFGQGTKLEIK
B6: 556F6B8-5 humanized antibody (antibody, V domains shown)
VH: QVQLQESGPGLVKPSETLSLTCTVSGGSISKYGVHWIRQPPGKGLEWIGVIWRGGITDYNAAFMSRVTISVDTSKNQFSLKLSSVTAADTAVYYCARWDGPLAMDYWGQGTTVTVSS
VL: DIVLTQSPSFLSASVGDRVTITCKASQDVGTTVAWYQQKPGKAPKLLIYWASTRHTGVPSRFSGSGSGTEFTLTISSLQPEDFATYYCQQYSSYPYTFGQGTKLEIK
B7: 556F6B8-4 humanized antibody (antibody, V domains shown)
VH: RVQLQESGPGLVKPSETLSLTCTVSGFSLIKYGVHWIRQPPGKGLEWIGVIWRGGITDYNAAFMSRVTISKDTSKSQVSLKLSSVTAADTAVYYCAKWDGPLAMDYWGQGTTVTVSS
VL: DIQLTQSPSFLSASVGDRVTITCKASQDVGTTVAWYQQKPGKAPKLLIYWASTRHTGVPSRFSGSGSGTEFTLTISSLQPEDFATYYCQQYSSYPYTFGQGTKLEIK
B8: 556F6B8-10 humanized antibody (antibody, V domains shown)
VH: QVQLQESGPGLVKPSETLSLTCTVSGFSIIKYGVHWIRQPPGKGLEWIGVIWRGGITDYNAAFMSRVTISVDTSKNQFSLKLSSVTAADTAVYYCARWDGPLAMDYWGQGTTVTVSS
VL: DIVLTQSPSFLSASVGDRVTITCKASQDVGTTVAWYQQKPGKSPKLLIYWASTRHTGVPSRFSGSGSGTEFTLTISSLQPEDFATYYCQQYSSYPYTFGQGTKLEIK
B9: 556F6B8-12 humanized antibody (antibody, V domains shown)
VH: RVQLQESGPGLVKPSETLSLTCTVSGFSLIKYGVHWIRQPPGKGLEWIGVIWRGGITDYNAAFMSRVTISKDTSKSQVSLKLSSVTAADTAVYYCAKWDGPLAMDYWGQGTTVTVSS
VL: DIVLTQSPSFLSASVGDRVTITCKASQDVGTTVAWYQQKPGKSPKLLIYWASTRHTGVPSRFSGSGSGTEFTLTISSLQPEDFATYYCQQYSSYPYTFGQGTKLEIK
B10: 556F6B8-9 humanized antibody (antibody, V domains shown)
VH: QVQLQESGPGLVKPSETLSLTCTVSGGSISKYGVHWIRQPPGKGLEWIGVIWRGGITDYNAAFMSRVTISVDTSKNQFSLKLSSVTAADTAVYYCARWDGPLAMDYWGQGTTVTVSS
VL: DIVLTQSPSFLSASVGDRVTITCKASQDVGTTVAWYQQKPGKSPKLLIYWASTRHTGVPSRFSGSGSGTEFTLTISSLQPEDFATYYCQQYSSYPYTFGQGTKLEIK

Experiments:
[1] = target: T1, human LAG-3 on cells (HEK293-hLAG-3 stable cell line) (human, UniProt P18627 23-525); experiment: FACS, HEK293-hLAG-3, antibody 0 nM
T1 sequence: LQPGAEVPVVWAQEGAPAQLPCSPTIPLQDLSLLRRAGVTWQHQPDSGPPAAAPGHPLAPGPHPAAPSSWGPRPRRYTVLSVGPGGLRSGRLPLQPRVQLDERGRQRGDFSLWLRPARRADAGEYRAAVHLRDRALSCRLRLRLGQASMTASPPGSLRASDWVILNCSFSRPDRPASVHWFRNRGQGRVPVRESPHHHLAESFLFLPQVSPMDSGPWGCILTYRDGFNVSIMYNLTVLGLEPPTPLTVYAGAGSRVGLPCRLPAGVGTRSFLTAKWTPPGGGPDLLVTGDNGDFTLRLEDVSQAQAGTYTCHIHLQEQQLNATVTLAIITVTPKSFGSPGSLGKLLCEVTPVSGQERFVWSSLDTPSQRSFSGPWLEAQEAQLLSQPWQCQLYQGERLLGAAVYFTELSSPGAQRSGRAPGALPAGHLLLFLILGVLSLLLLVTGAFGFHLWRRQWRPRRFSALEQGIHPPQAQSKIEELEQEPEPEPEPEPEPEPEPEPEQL

[2] = target: T1, human LAG-3 on cells (HEK293-hLAG-3 …); experiment: FACS, HEK293-hLAG-3, antibody 8 nM
[3] = target: T1, human LAG-3 on cells (HEK293-hLAG-3 …); experiment: FACS, HEK293-hLAG-3, antibody 40 nM
[4] = target: T1, human LAG-3 on cells (HEK293-hLAG-3 …); experiment: FACS, HEK293-hLAG-3, antibody 1.6 nM
[5] = target: T1, human LAG-3 on cells (HEK293-hLAG-3 …); experiment: FACS, HEK293-hLAG-3, antibody 0.32 nM
[6] = target: T1, human LAG-3 on cells (HEK293-hLAG-3 …); experiment: FACS, HEK293-hLAG-3, antibody 0.013 nM
[7] = target: T1, human LAG-3 on cells (HEK293-hLAG-3 …); experiment: FACS, HEK293-hLAG-3, antibody 0.064 nM

Row | Mean fluorescence intensity [1] | Mean fluorescence intensity [2] | Mean fluorescence intensity [3] | Mean fluorescence intensity [4] | Mean fluorescence intensity [5] | Mean fluorescence intensity [6] | Mean fluorescence intensity [7] | Binder
1 | 4 | 39 | 50 | 23 | 10 | 4 | 6 | B1
2 | 4 | 37 | 49 | 23 | 10 | 4 | 5 | B2
3 | 4 | 97 | 100 | 87 | 51 | 9 | 20 | B3
4 | 4 | 79 | 83 | 64 | 36 | 8 | 15 | B4
5 | 4 | 19 | 33 | 9 | 5 | 4 | 4 | B5
6 | 4 | 16 | 32 | 8 | 5 | 4 | 4 | B6
7 | 4 | 77 | 82 | 62 | 32 | 7 | 14 | B7
8 | 4 | 44 | 54 | 27 | 11 | 4 | 6 | B8
9 | 4 | 83 | 87 | 70 | 36 | 8 | 15 | B9
10 | 4 | 18 | 33 | 9 | 5 | 4 | 4 | B10
